Target: Vpr-Gal4AD chimeric protein (UniProt P12520)

Substance | beta-galactosidase activity, liquid culture of double transformant yeast, relative to wild type UDG-Gal4BD
UDG-Gal4BD chimeric protein UDG F225G | exhibited only 7% of the ability to interact with Vpr-Gal4AD chimeric protein
UDG-Gal4BD chimeric protein UDG W222G | exhibited less than half (43%) of the ability to interact with Vpr-Gal4AD chimeric protein

Reference: patent publication US6541002
